Tests used:
[1] = substrate: Nc1ncnc2c1ncn2[C@H]1C[C@H](O)[C@@H](COP(=O)(O)OP(=O)(O)OP(=O)(O)O)O1; experiment: purified protein; type: biochemical, Homo sapiens; conditions: undamaged 26-mer template, misincorporation opposite G, 6.4 nM enzyme, 50 nM template-primer, 25 mM Tris-HCl pH 7.5, 5 mM MgCl2, 5 mM DTT, 37 °C
[2] = substrate: Nc1ncnc2c1ncn2[C@H]1C[C@H](O)[C@@H](COP(=O)(O)OP(=O)(O)OP(=O)(O)O)O1; experiment: purified protein; type: biochemical, Saccharomyces cerevisiae; conditions: undamaged 26-mer template, misincorporation opposite G, 6.4 nM enzyme, 50 nM template-primer, 25 mM Tris-HCl pH 7.5, 5 mM MgCl2, 5 mM DTT, 37 °C

B1: human DNA polymerase η (hPol η) (Homo sapiens) (protein)
chain: MATGQDRVVALVDMDCFFVQVEQRQNPHLRNKPCAVVQYKSWKGGGIIAVSYEARAFGVTRSMWADDAKKLCPDLLLAQVRESRGKANLTKYREASVEVMEIMSRFAVIERASIDEAYVDLTSAVQERLQKLQGQPISADLLPSTYIEGLPQGPTTAEETVQKEGMRKQGLFQWLDSLQIDNLTSPDLQLTVGAVIVEEMRAAIERETGFQCSAGISHNKVLAKLACGLNKPNRQTLVSHGSVPQLFSQMPIRKIRSLGGKLGASVIEILGIEYMGELTQFTESQLQSHFGEKNGSWLYAMCRGIEHDPVKPRQLPKTIGCSKNFPGKTALATREQVQWWLLQLAQELEERLTKDRNDNDRVATQLVVSIRVQGDKRLSSLRRCCALTRYDAHKMSHDAFTVIKNCNTSGIQTEWSPPLTMLFLCATKFSASAPSSSTDITSFLSSDPSSLPKVPVTSSEAKTQGSGPAVTATKKATTSLESFFQKAAERQKVKEASLSSLTAPTQAPMSNSPSKPSLPFQTSQSTGTEPFFKQKSLLLKQKQLNNSSVSSPQQNPWSNCKALPNSLPTEYPGCVPVCEGVSKLEESSKATPAEMDLAHNSQSMHASSASKSVLEVTQKATPNPSLLAAEDQVPCEKCGSLVPVWDMPEHMDYHFALELQKSFLQPHSSNPQVVSAVSHQGKRNPKSPLACTNKRPRPEGMQTLESFFKPLTH
notes: recombinant, purchased from Enzymax LLC (Lexington, KY)
Q: Which Km [1] does the source give for B1 here?
A: 6.5 ± 0.03 µM

Q: And the kcat [1]?
A: 0.104 ± 0.00017 s⁻¹

Q: And the kcat/Km [1]?
A: 16000 M⁻¹ s⁻¹

B2: yeast DNA polymerase η (yPol η) (Saccharomyces cerevisiae S288C) (protein)
chain: MSKFTWKELIQLGSPSKAYESSLACIAHIDMNAFFAQVEQMRCGLSKEDPVVCVQWNSIIAVSYAARKYGISRMDTIQEALKKCSNLIPIHTAVFKKGEDFWQYHDGCGSWVQDPAKQISVEDHKVSLEPYRRESRKALKIFKSACDLVERASIDEVFLDLGRICFNMLMFDNEYELTGDLKLKDALSNIREAFIGGNYDINSHLPLIPEKIKSLKFEGDVFNPEGRDLITDWDDVILALGSQVCKGIRDSIKDILGYTTSCGLSSTKNVCKLASNYKKPDAQTIVKNDCLLDFLDCGKFEITSFWTLGGVLGKELIDVLDLPHENSIKHIRETWPDNAGQLKEFLDAKVKQSDYDRSTSNIDPLKTADLAEKLFKLSRGRYGLPLSSRPVVKSMMSNKNLRGKSCNSIVDCISWLEVFCAELTSRIQDLEQEYNKIVIPRTVSISLKTKSYEVYRKSGPVAYKGINFQSHELLKVGIKFVTDLDIKGKNKSYYPLTKLSMTITNFDIIDLQKTVVDMFGNQVHTFKSSAGKEDEEKTTSSKADEKTPKLECCKYQVTFTDQKALQEHADYHLALKLSEGLNGAEESSKNLSFGEKRLLFSRKRPNSQHTATPQKKQVTSSKNILSFFTRKK
notes: as for B1
Q: B2 was tested. Which Km [2] did it give?
A: 9.5 ± 0.002 µM

Q: And the kcat [2]?
A: 0.0883 ± 0.0005 s⁻¹

Q: What about the kcat/Km [2] of the same protein?
A: 9330 M⁻¹ s⁻¹

Reference: paper PMC2946590, “Replication Past the γ-Radiation-Induced Guanine-Thymine Cross-Link G[8,5-Me]T by Human and Yeast DNA Polymerase η” (Journal of Nucleic Acids, 2010)
